How the values were obtained:
human 4-1BB on cells [1] = molecular target: T1, human 4-1BB on cells (human, UniProt Q07011 24-255); experiment: cell-based or functional assay
human 4-1BB on cells [2] = molecular target: T1, human 4-1BB on cells; experiment: cell-based or functional assay; remark: listed apart in the source
[3] = molecular target: T2, human 4-1BB expressed with a C-terminal myc-myc-hexahistidine tag (h4-1BB.mmH) (human); experiment: blocking ELISA, 0.25 nM h4-1BB-mmh binding to coated 6His-Flag-h4-1BBL
T2 construct: also called hCD137 (4-1BB) mmH
T2 sequence (chain, as listed by the source limits assumed): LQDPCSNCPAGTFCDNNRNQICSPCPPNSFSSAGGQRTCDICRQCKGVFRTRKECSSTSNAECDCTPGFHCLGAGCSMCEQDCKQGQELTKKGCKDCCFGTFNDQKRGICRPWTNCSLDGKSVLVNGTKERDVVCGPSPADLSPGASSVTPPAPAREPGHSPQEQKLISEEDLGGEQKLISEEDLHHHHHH
Procedure: The 4-1BB blocking assay was performed similarly to the PD-L1 blocking assay. 6His-Flag-h4-1BBL protein ([…] in PBS) was coated onto a 96-well microtiter plate overnight at 4 °C. […] The plates were developed using TMB substrate solution (BD Biosciences) and the absorbance at 450 nm was measured on a SpectraMax I3x plate reader.
Binding data were analyzed using a sigmoidal (four-parameter logistic) dose-response model with GraphPad Prism™ software. […] The percent blocking of tested antibodies at the highest tested concentration of 100 nM was calculated based on the formula shown below: […]

human 4-1BB on cells [4] = molecular target: T1, human 4-1BB on cells; experiment: flow cytometry, Jurkat/NFkB-Luc/h41BB cells
Procedure: Binding was detected by using a labeled secondary antibody and measuring fluorescence on a flow cytometer.
Assay set up: OVCAR-3+/−PD-L1 cells were lifted with trypsin, washed and resuspended in stain buffer (2% FBS in PBS). OVCAR-3 and Jurkat/NFkB-Luc/h41BB cells were counted and added to wells at 200,000 cells/well. Cells, in wells of 96-well round bottom plates, were pelleted by centrifugation and resuspended in 150 ul stain buffer (PBS containing 2% FBS). Plates were once again centrifuged and subsequently 100 ul of stain buffer alone or stain buffer containing antibody, titrated from 200 nM to 12 pM in a 9-point 1:4 dose titration were added to cells. Cells and antibodies were incubated for 30 min on ice and then washed in stain buffer. Cells were resuspended in 2 μg/ml allophycocyanin (APC) conjugated goat-anti human secondary antibody. A secondary antibody alone control was included. Cells and secondary were incubated for 30 min on ice and then washed in stain buffer. After a subsequent wash with PBS (containing no FBS), cells were resuspended in viability dye (reconstituted in DMSO according to the manufacturer's protocol and diluted 1:1000 in PBS) and incubated for 20 min on ice. They were then washed with stain buffer and resuspended in 2% PFA for 30 min at 4 C. After washing they were filtered and analyzed by flow cytometry. EC₅₀ values of the antibodies were determined from a 4 parameter logistic equation over a 9-point dose response curve (including secondary only control) using GraphPad Prism software.

T1 sequence (Q07011 24-255): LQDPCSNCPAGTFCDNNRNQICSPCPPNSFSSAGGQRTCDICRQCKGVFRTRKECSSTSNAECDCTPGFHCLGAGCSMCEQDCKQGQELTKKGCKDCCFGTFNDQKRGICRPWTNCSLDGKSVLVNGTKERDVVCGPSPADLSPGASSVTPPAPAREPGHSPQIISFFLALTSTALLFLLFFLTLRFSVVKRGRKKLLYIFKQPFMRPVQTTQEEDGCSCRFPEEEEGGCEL

| NFkB-luciferase MAX (RLU), Jurkat/NFkB-Luc/h41BB + HEK293/hCD20/hPSMA (human 4-1BB on cells [1]) | NFkB-luciferase MAX (RLU), Jurkat/NFkB-Luc/h41BB + HEK293/hCD20/hPSMA/hPD-L1 (human 4-1BB on cells [1]) | IL2 release MAX, human CD3+ T cells + HEK293/hCD20/hPSMA + CD20xCD3 (human 4-1BB on cells [2]) | IL2 release MAX, human CD3+ T cells + HEK293/hCD20/hPSMA, no CD20xCD3 (human 4-1BB on cells [2]) | IL2 release MAX, human CD3+ T cells + HEK293/hCD20/hPSMA/hPD-L1 + CD20xCD3 (human 4-1BB on cells [2]) | IL2 release MAX, human CD3+ T cells + HEK293/hCD20/hPSMA/hPD-L1, no CD20xCD3 (human 4-1BB on cells [2]) | % Blocking at 100 nM mAb [3] | IC50 [3] | EC50 (human 4-1BB on cells [4]) | Fold change (max MFI over secondary antibody alone) (human 4-1BB on cells [4]) | Max [gMFI] (human 4-1BB on cells [4]) | Binder |
| --- | --- | --- | --- | --- | --- | --- | --- | --- | --- | --- | --- |
| 18500 RLU | 18500 RLU | 11.3 pg/mL | 2.5 pg/mL | 10.3 pg/mL | 2.5 pg/mL |  |  |  |  |  | mAb9373 (antibody, V domains shown) VH: QVQLVQSGTEVKKPGASVKVSCKASGYTFTAYYMHWVRQAPGQGLDWMGWISPNSGFTNYAQKFQGRVTMTRDTSINTFYMELSGLRSDDTAVYYCAREGSTHHNSFDPWGQGTLVTVSS VL: not shown |
| 18000 RLU | 18000 RLU | 10 pg/mL | 1 pg/mL | 5.8 pg/mL | 1 pg/mL | 94% | 0.75 nM | 0.287 nM | 76.9 fold | 170000 gMFI | mAb25921 (antibody, V domains shown, bivalent parental anti-4-1BB antibody of REGN6191; also called 25921P2; a-4-1BB) VH: QVQLVQSGAEVKKPGASVKVSCKASAYTFTSYGFSWVRQAPGQGLEWMGWISTSNGYTNYAQKIQDRVTMTTDTSTSTAYMELRSLRSDDTAVYYCASLSNWVSFFDYWGQGTLVTVSS VL: not shown |

Source: US20250043017A1 (Regeneron, published 2025)
